Biological target: tetra-Cys human GAPDH (TC-hGAPDH), bacterially expressed and purified (human) (UniProt P04406)
Experiment: SEC

Q: Which stoichiometry N does the source give for “tetra-Cys human GAPDH (TC-hGAPDH), bacterially expressed and purified (from UniProt P04406 1-335) (enzyme)” here?
A: The stoichiometry N was 4.
